Assay: yeast display, Sf9 membrane polyspecificity reagent, FACS + sequencing; frameworks hold sequencing errors
Summary of the method: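 Nanobodies from a synthetic yeast display library (Saccharomyces cerevisiae BJ5465), induced 36–48 hours with galactose, were stained 1 hour at 4 °C with 10% biotinylated, detergent-solubilized Sf9 membrane reagent, enriched on streptavidin microbeads, then FACS-sorted. Anti-HA (expression) and streptavidin (reagent binding) fluorescence set low and high (top ~1%) gates. Polyreactivity labels come from the gate of origin. Genes were colony-PCR amplified, MiSeq 2 × 250 sequenced and filtered by CDR length.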

Question: With “QVQLVESGGGLVQAGGSLRLSCAASGSTFRYYAMGWYRQAPGKERELVAAISRSGGRTYYADSVKGRFTISRDNAKNTAYLQMNRLKPEDTAVYYCAVVVWWFTGCLGPYDYWGKGTQVTVSS” as the sequence, how does the “polyreactivity (PSR sort gate)” value read?
Answer: high polyreactivity

Question: With “QVQLVESGGGLVQAGGSLRLSCAASGSTFRYYAMGWYRQAPGKERELVAAISYGGGITNYADSVKGRLTISRDNAKNTVYLQMNSLKPEDTAVYYCAAYDRITRYDYWGQGTQVTVSS” as the sequence, how does the “polyreactivity (PSR sort gate)” value read?
Answer: high polyreactivity

Question: Which “polyreactivity (PSR sort gate)” value does the source give for “QVQLVESGGGLVQAGGSLRLSCAASGSTFRYYAMGWYRQAPGKERELVAAITWSGGRTTYADSVKGRFTISRDNAKNTVYLQMNSLKPEDTAVYYCAAEWHYFVTMYYWGQGTQVTVSS” here?
Answer: low polyreactivity

Question: Which “polyreactivity (PSR sort gate)” value does the source give for “QVQLVESGGGLVQAGGSLRLSCAASGSTFRYYAMGWYRQAPGKERELVAGITRIGGRTYYADSVKGRFTISRDNAKNTVDLQMNSLKPEDTAVYYCAADYGGFLGYDYWGQGTQVTLSS” here?
Answer: high polyreactivity

Question: With “QVQLVESGGGLVQAGGSLRLSCAASGSTFRYYAMGWYRQAPGKERELVASITWSGGSTYYADSVKGRFTISRDNAKNTVYLQMNSLKPEDTAVYYCAARQYIGSPPHRRRFDYWGQGTQVTVSS” as the sequence, how does the “polyreactivity (PSR sort gate)” value read?
Answer: high polyreactivity

Question: Which “polyreactivity (PSR sort gate)” value does the source give for “QVQLVESGGGLVQAGGSLRLSCAASGSTFRYYSMGWYRQAPGKERELVAAITYRGGRTYYADSVKGRFTISRDNAKNTDYLQKNSLKPEDTAVYYCAAKSGRHSMDSSGQGTQVTVSS” here?
Answer: low polyreactivity

Question: For “QVQLVESGGGLVQAGGSLRLSCAASGSTFRYYTMGWYRQAPGKERELVAAISSSGTRTYYADSVKGRFTISRDYAKNTVYLQMNSLKPEDTAVYYCDTVFLRSDGWRRSNMDYWGQGTQVTVSS”, which “polyreactivity (PSR sort gate)” value is on record?
Answer: high polyreactivity

Question: With “QVQLVESGGGLVQAGGSLRLSCAASGSTFRYYTMGWYRQAPGKERELVAAITWSGGSTYYADSVKGRFTISRDNAKNTVYLQMNSLKPEDTAVYYCAADRYSYGSNGYPRFEYYYWGQGTQVTVSS” as the sequence, how does the “polyreactivity (PSR sort gate)” value read?
Answer: high polyreactivity

Question: For “QVQLVESGGGLVQAGGSLRLSCAASGSTFSANTMGWYRQAPGKERELVAAISSSGVGTRYADSVKGRFTISRDNAKNTVYLQMNSLKPEDTAVYYCNADLYGGGDKSVISGLNGEYEYWGQGTQVTVSS”, which “polyreactivity (PSR sort gate)” value is on record?
Answer: low polyreactivity

Question: With “QVQLVESGGGLVQAGGSLRLSCAASGSTFSANTMGWYRQAPGKQREFVAAISSSGVGTRYADSVKGRFTISRDYAKNTVYLQMNSLKPEDTAVYYCAADYRPTVITRNDYWGQGTQVTVSS” as the sequence, how does the “polyreactivity (PSR sort gate)” value read?
Answer: low polyreactivity

Question: With “QVQLVESGGGLVQAGGSLRLSCAASGSTFSDNAMGWSRQAPGKERELVATIDYDGSTYYADSVKGRFTISRDNAKNTVYLQMNSLRTEDTAVYYCAADVYQVPGPYWSRTYEYDYWGQGTQVTVSS” as the sequence, how does the “polyreactivity (PSR sort gate)” value read?
Answer: low polyreactivity

Question: For “QVQLVESGGGLVQAGGSLRLSCAASGSTFSDNAMGWYRQAPGKERELVAAITSGGSTYYADSVKGRFTISRDNAKNTVYLQMNSLKPEDTAVYYCATGGVTFGSVVRGVDGDYWGQGTQVTVSS”, which “polyreactivity (PSR sort gate)” value is on record?
Answer: low polyreactivity

Question: With “QVQLVESGGGLVQAGGSLRLSCAASGSTFSDNAMGWYRQAPGKERELVAGITGGGGTYYADSVKGRFTISRDNAKNTVYLQMNSLKPEDTAVYYCAADTWGTPTPFVHYPEFEHWGQGTQVTVSS” as the sequence, how does the “polyreactivity (PSR sort gate)” value read?
Answer: low polyreactivity

Question: With “QVQLVESGGGLVQAGGSLRLSCAASGSTFSDYAMGWYRQAPGKERELVAAISDSGSGTYYADSVKGRFTISRDNAKNTVYLQMNSLKPEDTAVYYCNTDPRFAMDWGQGTQVTVSS” as the sequence, how does the “polyreactivity (PSR sort gate)” value read?
Answer: low polyreactivity

Question: Which “polyreactivity (PSR sort gate)” value does the source give for “QVQLVESGGGLVQAGGSLRLSCAASGSTFSDYAMGWYRQAPGKERELVAAISGGGTTDYADSVKGRFTISRDNAKNTVYLQMNSLKPEDTAVYYCNKPVEGSFLPYSYLRFDYWGQGTQVTVSS” here?
Answer: low polyreactivity

Question: For “QVQLVESGGGLVQAGGSLRLSCAASGSTFSDYAMGWYRQAPGKERELVAAISYSGGSTYYADSVKGRFTISRDNAKNTVYLQMNSLKPEDTAVYYCAAEYERYFGYDYWGQGTQVTVSS”, which “polyreactivity (PSR sort gate)” value is on record?
Answer: low polyreactivity

Question: Which “polyreactivity (PSR sort gate)” value does the source give for “QVQLVESGGGLVQAGGSLRLSCAASGSTFSDYVMGWYRQAPGKERELVAAISWSGDRTYYADSVKGRFTISRDNAKNTVYLQMNSLKPEETAVYYCAAEYAPSEPSYYYGYDYWGQGTQVTVSS” here?
Answer: high polyreactivity

Question: Which “polyreactivity (PSR sort gate)” value does the source give for “QVQLVESGGGLVQAGGSLRLSCAASGSTFSFYTMGWYRQAPGKERELVAAISQSGTSTYYADSVKGRFTISRDNAKNTVFLQMNSLKPEDTAVYYCATVRKFYFHTRWYYYEGGYWGQGTQVTVSS” here?
Answer: high polyreactivity

Question: Which “polyreactivity (PSR sort gate)” value does the source give for “QVQLVESGGGLVQAGGSLRLSCAASGSTFSGNAMGWYRQAPGKERELVAAISSGGDTYYADSVKGRFTNSRDNAKNTVYLQMNSLKPEDTAVYYCNARSTWRHRRDQVDFDYWGQGTQVTVSS” here?
Answer: low polyreactivity

Question: With “QVQLVESGGGLVQAGGSLRLSCAASGSTFSGNAMGWYRQAPGKERELVAAITSGGSTNYADSVKGRFTISRDNAKNTVYLDMNSLKPEDTAVYYCAKRYGYRRYYTASDYWGQGTQVTVSS” as the sequence, how does the “polyreactivity (PSR sort gate)” value read?
Answer: low polyreactivity

Question: For “QVQLVESGGGLVQAGGSLRLSCAASGSTFSGNAMGWYRQAPGKERELVAGIRQSGDSTYYADSVKGRFTISRDNAKNTVYLQMNSLKPEDTAVYDCNARAFPFGTGVQGFGFGYWGQGTQVTVSS”, which “polyreactivity (PSR sort gate)” value is on record?
Answer: low polyreactivity

Question: With “QVQLVESGGGLVQAGGSLRLSCAASGSTFSGYTMGWYRQAPGKERELVASISSGVSTYYADSVKGRFTISRDNAKNTVYLQMNSLKPEDTAVYYCAADSVGDYGYQVYASWGYEDEYWGQGTQVTVSS” as the sequence, how does the “polyreactivity (PSR sort gate)” value read?
Answer: low polyreactivity

Question: For “QVQLVESGGGLVQAGGSLRLSCAASGSTFSHYAMGWYRQAPGKERELVAAISTSGGSTYYADSVKGRFTISRDNAKNTVYLQMNSLKPEDTAVYYCAAAVPRQGNYGGYEYWGQGSQVTVSS”, which “polyreactivity (PSR sort gate)” value is on record?
Answer: high polyreactivity

Question: Which “polyreactivity (PSR sort gate)” value does the source give for “QVQLVESGGGLVQAGGSLRLSCAASGSTFSHYAMVWYRQAPGKERELVATITGTGVRTYYADSVKGRFTISRDNAKNTVYLQMNSLKPEDTAVSYCAVPPSKRGAQAQPWMDYWGQGTQVTVSS” here?
Answer: low polyreactivity

Question: With “QVQLVESGGGLVQAGGSLRLSCAASGSTFSINAMGWYRQAPGKERELVAAISWRGSGTYYADSVKGRFTISRDNAKNTVYLQMNSLKPEDTAVYYCAAEWDRPLYYPWYVEYDYWGQGTQVTVSS” as the sequence, how does the “polyreactivity (PSR sort gate)” value read?
Answer: high polyreactivity

Question: Which “polyreactivity (PSR sort gate)” value does the source give for “QVQLVESGGGLVQAGGSLRLSCAASGSTFSIYAMGWYRQAPGKERELVAAISSSGGSTYYADSVKGRFTISRDNAKNTFYLQMNSLKPEDTAVYYCNKRKYHVRYDYWGQGTQVTVSS” here?
Answer: low polyreactivity

Question: Which “polyreactivity (PSR sort gate)” value does the source give for “QVQLVESGGGLVQAGGSLRLSCAASGSTFSKKAMGWYRQAPGKERELVAAITGRGGNTYYADSVKGRFTLSRDNAKNTVYLQMNSLKPEDTAVYYCAASWATYWFYRKAYNYWGQGTQVTVSS” here?
Answer: high polyreactivity

Question: With “QVQLVESGGGLVQAGGSLRLSCAASGSTFSKNAMGWYRQAPGKERELVASISSSGGSTYYADSVKGRFTISRDNAKNTVYLQMNSLKPEDTAVYYCNRRWYARGEYWGQGTQVTVSS” as the sequence, how does the “polyreactivity (PSR sort gate)” value read?
Answer: high polyreactivity

Question: Which “polyreactivity (PSR sort gate)” value does the source give for “QVQLVESGGGLVQAGGSLRLSCAASGSTFSKNTMGWYRQAPGKERELVAAITGTGDSTYYADSVKGRFTISRDNAKYPVYLQMNSLKPEDTAVYYCAADAYSLCYESWGQGTKVTVSS” here?
Answer: low polyreactivity

Question: Which “polyreactivity (PSR sort gate)” value does the source give for “QVQLVESGGGLVQAGGSLRLSCAASGSTFSKYAMGWYRQAPGKERELVAAITWRASTYYADSVKGRFTISRDNAKNTVYLQMNSLKPEDTAVYYCAVRQSQRGGTSSNTSNDYWGQGTQVTVSS” here?
Answer: high polyreactivity

Question: For “QVQLVESGGGLVQAGGSLRLSCAASGSTFSKYAMGWYRQAPGKERELVATISSTGSTNYADSVKGRFTISRDNAKNTVYLQMNSLKPEDTAVSYCNAGRRGRPYYKYYYWGQGTQVTVSS”, which “polyreactivity (PSR sort gate)” value is on record?
Answer: high polyreactivity

Question: With “QVQLVESGGGLVQAGGSLRLSCAASGSTFSLYAMGWSRQAPGKERELVAAISRSGGRTYYADSVKGRFTISRDNAKNTVYLQMNSLKPEDTAVYYCAADSTSGYYWGQGTQVTVSS” as the sequence, how does the “polyreactivity (PSR sort gate)” value read?
Answer: high polyreactivity

Question: Which “polyreactivity (PSR sort gate)” value does the source give for “QVQLVESGGGLVQAGGSLRLSCAASGSTFSLYAMGWYRQAPGKERELVAAISQSGSRTYYADSVKGRFTISRDNAKNTVYLQMNSLKPEDTAVYYCAAYSPQTYLRWTYGYWGQGTQVTVSS” here?
Answer: high polyreactivity

Question: Which “polyreactivity (PSR sort gate)” value does the source give for “QVQLVESGGGLVQAGGSLRLSCAASGSTFSLYAMGWYRQATGKERELVASIRGRGGSTNYADSVKGRFTISRDNAKNTVYLQMNSLKPEDTAVYYCAAAVGSVRYDYWGQGTQVTVSS” here?
Answer: high polyreactivity

Question: For “QVQLVESGGGLVQAGGSLRLSCAASGSTFSLYDMGWYRQAPGKERELVAAISSSGGGTYYADSVKGRFTISRDNAKKTVYLQMNSLKPEDTAVYYCAARFYYYPTKYDSWGQGTQVTVSS”, which “polyreactivity (PSR sort gate)” value is on record?
Answer: high polyreactivity

Question: With “QVQLVESGGGLVQAGGSLRLSCAASGSTFSLYTMGWYRQAPGKERELVAAITNGGSTKYADSVKGRFTISRDNAKNTVYLQMNSLKPEDTAVYYCAALYTHYYWIEYDYWGQGTQVTVSS” as the sequence, how does the “polyreactivity (PSR sort gate)” value read?
Answer: low polyreactivity

Question: Which “polyreactivity (PSR sort gate)” value does the source give for “QVQLVESGGGLVQAGGSLRLSCAASGSTFSNAMGWYREAPGKERELVAAITNRGGSTYYADSVKGRFTISRDNAKNTVYLQMNSLKPEDTAVYYCAAAGIPESWYQERDYWGQGTQVTVSS” here?
Answer: low polyreactivity

Question: Which “polyreactivity (PSR sort gate)” value does the source give for “QVQLVESGGGLVQAGGSLRLSCAASGSTFSPYALGWYRQAPGKERELVAGITSSGGDTYYADSVKGRFTISRDNAKNTVYLQMNSLKPEDTAVYYCAADWWVLGQLWFDYWGQGTQVTVSS” here?
Answer: low polyreactivity

Question: With “QVQLVESGGGLVQAGGSLRLSCAASGSTFSPYAMGWYIQAPGKERELVAAIRVRVGGNTYYADSVKGRFTISRDNAKNTVYLQMNSLKPEDTAVYYCAAYSRTLYPDRYYWGQGTQVTVSS” as the sequence, how does the “polyreactivity (PSR sort gate)” value read?
Answer: high polyreactivity

Question: For “QVQLVESGGGLVQAGGSLRLSCAASGSTFSPYAMGWYRQAPGKDRELVAAISYDGASTYYADSVKGRFTISRDNAKNTVYLQMISLKPEDTAVYYCAADYFRSYEGTYWVVASYYYWGQGTQVTVSS”, which “polyreactivity (PSR sort gate)” value is on record?
Answer: low polyreactivity

From the nanobody polyreactivity screen of Harvey et al. (2022)
